# Measurements as given in publication doi:10.1101/521369 (bioRxiv, 2019).
# B1: Alexa594-eIF5A (purified) (natural protein)
# chain: not shown
# modifications: Alexa594 on the N-terminus
# Target: T1, Alexa488-PLCβ1 (purified PLCβ1a) (UniProt P10687 1-1216, Alexa488 on the N-terminus)
# T1 sequence: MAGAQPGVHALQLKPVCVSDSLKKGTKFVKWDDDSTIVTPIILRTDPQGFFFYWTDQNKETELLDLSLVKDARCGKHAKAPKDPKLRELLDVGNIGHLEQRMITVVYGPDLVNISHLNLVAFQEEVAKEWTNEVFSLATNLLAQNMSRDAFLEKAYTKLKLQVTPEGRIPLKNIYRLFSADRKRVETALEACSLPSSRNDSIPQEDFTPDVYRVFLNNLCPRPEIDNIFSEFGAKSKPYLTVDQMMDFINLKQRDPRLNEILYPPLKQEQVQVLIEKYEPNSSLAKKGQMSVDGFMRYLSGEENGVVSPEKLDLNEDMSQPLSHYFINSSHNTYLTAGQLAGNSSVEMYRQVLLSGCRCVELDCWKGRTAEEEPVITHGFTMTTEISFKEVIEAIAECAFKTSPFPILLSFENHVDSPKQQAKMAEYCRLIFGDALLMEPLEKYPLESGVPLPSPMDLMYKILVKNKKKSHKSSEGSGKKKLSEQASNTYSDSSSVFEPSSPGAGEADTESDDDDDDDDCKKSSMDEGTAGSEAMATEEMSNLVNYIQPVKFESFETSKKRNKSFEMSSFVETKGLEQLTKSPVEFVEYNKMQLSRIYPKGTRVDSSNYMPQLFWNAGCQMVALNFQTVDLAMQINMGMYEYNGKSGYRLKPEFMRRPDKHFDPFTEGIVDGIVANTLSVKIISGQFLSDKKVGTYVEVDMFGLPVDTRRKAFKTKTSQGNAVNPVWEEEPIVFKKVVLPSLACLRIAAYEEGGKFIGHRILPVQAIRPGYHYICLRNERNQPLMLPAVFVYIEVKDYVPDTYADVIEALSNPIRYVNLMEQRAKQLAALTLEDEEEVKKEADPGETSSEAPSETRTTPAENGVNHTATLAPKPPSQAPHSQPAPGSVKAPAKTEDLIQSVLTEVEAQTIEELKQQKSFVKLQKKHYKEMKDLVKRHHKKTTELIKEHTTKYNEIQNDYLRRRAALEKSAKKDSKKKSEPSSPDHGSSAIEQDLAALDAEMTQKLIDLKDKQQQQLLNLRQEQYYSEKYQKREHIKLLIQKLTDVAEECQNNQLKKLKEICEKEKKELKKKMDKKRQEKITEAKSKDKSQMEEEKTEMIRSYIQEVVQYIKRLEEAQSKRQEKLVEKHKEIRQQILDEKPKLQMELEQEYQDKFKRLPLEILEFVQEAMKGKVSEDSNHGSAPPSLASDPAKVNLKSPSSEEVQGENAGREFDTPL
# Experiment: other fluorescence titration
binder,measurement,value
B1,Kd,27 ± 5 nM
